Laboratory results from US12366572B2, “Activation of bioluminescence by structural complementation” (Promega Corporation, priority 2013, dated 2025).

B1: 11S: evolved non-luminescent polypeptide variant 11S (12S-51) (protein)
chain: MVFTLEDFVGDWEQTAAYNLDQVLEQGGVSSLLQNLAVSVTPIQRIVRSGENALKIDIHVIIPYEGLSADQMAQIEEVFKVVYPVDDHHFKVILPYGTLVIDGVTPNMLNYFGRPYEGIAVFDGKKITVTGTLWNGNKIIDERLITPDGSMLFRVTINS
B2: L149M (protein)
chain: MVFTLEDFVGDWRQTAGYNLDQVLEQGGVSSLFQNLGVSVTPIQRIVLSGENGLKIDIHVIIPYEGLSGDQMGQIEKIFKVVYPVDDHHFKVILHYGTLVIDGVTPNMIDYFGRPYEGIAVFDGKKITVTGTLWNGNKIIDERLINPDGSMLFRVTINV

Legend:
NLpep78-HT or NLpep79-HT = test: Luminescence of NLpoly variants without NLpep or with NLpep78-HT / NLpep79-HT (Example 93); format: biochemical; conditions: E. coli expression culture
[1] = Substrate specificity of NLpoly 5P and 11S with NLpep79 (Example 97); format: biochemical
Method: E. coli clarified lysates were prepared for NLpoly 5P or 11S as described previously. The NLpoly lysates were then serially diluted in steps of 10-fold into PBS+0.1% Prionex.

[2] = test system: wt Oplophorus 157-169 peptide; test: Relative specific activity in HEK293T lysates (Example 143); format: biochemical; conditions: averages of Vmax and Bmax normalized to NanoLuc
Method: Each clone was inserted into pFN21A HaloTag® CMV Flexi® Vector (Promega G2821), and lysates were prepared as follows: 3 ml HEK293T cells that have been diluted to a concentration of 200,000 cells/ml (600,000 cells total) were plated into each well of a 6-well plate and grown overnight at 37° C. in a CO2 incubator. The following day transfection complexes of each DNA were prepared by combining […] of DNA, Opti-MEM® (Life Technologies 11058-021) to a final volume of 310 μl and 20 μl of FuGENE® HD (Promega E231a). The transfection complexes were incubated for 20 minutes and then 150 μl of each complex added in duplicate to cells. The cells were grown overnight 37° C. in a CO2 incubator. The following day, the cells were washed cells with DPBS (Life Technologies 14190-144), and 1 ml fresh DPBS added. Cells were frozen to lyse and then thawed for testing. Duplicate transfection reactions lysates were combined.
In order to compare the specific activities of Nluc (full length enzyme) to wt Oplophorusl-156 and NLpoly11S in combination with wt Oplophorus 157-169 peptide (binary proteins), substrate titrations were run for all of the samples, but for the binary samples substrate titrations were run at multiple peptide concentrations. Using this format, it was possible to calculate a Vmax value for Nluc and both Vmax and Bmax values for NLpoly11S and wt Oplophorus 1-156. Three separate experiments were run using this format and Vmax and Bmax values were normalized to the Vmax of NanoLuc. Relative specific activities (calculated as averages of Vmax and Bmax) are normalized to NanoLuc.

[3] = Luminescence of NLpoly without NLpep, E. coli clarified lysate (Example 57); format: biochemical; conditions: E. coli clarified lysate + NanoGlo+Fz
Method: 50 μL of each lysate and 50 uL NanoGlo+Fz were mixed and incubated for 5 min RT. Luminescence was measured on GloMax® Multi+ with 0.5 sec integration.

[…] peptide [4] = biological target: T1, […] peptide (Oplophorus gracilirostris, UniProt Q9GV45); test: Non-luminescent polypeptide mutant luminescence after complementation with peptide (Example 5, Table 4); conditions: E. coli culture of polypeptide mutant + 1x peptide solution; NANOGLO reagent
[…] peptide [5] = biological target: T1, […] peptide; test: as above; conditions: E. coli culture of polypeptide mutant + 1x peptide solution; NANOGLO reagent; remark: listed apart in the source

| Molecule | Luminescence without NLpep or with NLpep78 or NLpep79 (NLpep78-HT or NLpep79-HT) | Substrate specificity for furimazine [1] | Relative specific activity (*with wt 157-169 peptide) [2] | Luminescence in the absence of NLpep, higher than WT NLpoly [3] [fold] | Luminescence with […] ([…] peptide [4]) | Luminescence with […] ([…] peptide [5]) |
| --- | --- | --- | --- | --- | --- | --- |
| B1 | improved luminescence over the other variants | superior specificity for furimazine than 5P | 0.18* | ~500 | – | – |
| B2 | – | – | – | – | 2.89 RLU(mutant)/RLU(WT) | 2.16 RLU(mutant)/RLU(WT) |
